# B1: wildtype SRF protein: wildtype serum response factor reintroduced by expression vector (protein, UniProt P11831 1-508, looked up)
# Serum response factor: MLPTQAGAAAALGRGSALGGSLNRTPTGRPGGGGGTRGANGGRVPGNGAGLGPGRLEREAAAAAATTPAPTAGALYSGSEGDSESGEEEELGAERRGLKRSLSEMEIGMVVGGPEASAAATGGYGPVSGAVSGAKPGKKTRGRVKIKMEFIDNKLRRYTTFSKRKTGIMKKAYELSTLTGTQVLLLVASETGHVYTFATRKLQPMITSETGKALIQTCLNSPDSPPRSDPTTDQRMSATGFEETDLTYQVSESDSSGETKDTLKPAFTVTNLPGTTSTIQTAPSTSTTMQVSSGPSFPITNYLAPVSASVSPSAVSSANGTVLKSTGSGPVSSGGLMQLPTSFTLMPGGAVAQQVPVQAIQVHQAPQQASPSRDSSTDLTQTSSSGTVTLPATIMTSSVPTTVGGHMMYPSPHAVMYAPTSGLGDGSLTVLNAFSQAPSTMQVSHSQVQEPGGVPQVFLTASSGTVQIPVSAVQLHQMAVIGQQAGSSSNLTELQVVNLDTAHSTKSE
# B2: zyxin: focal adhesion protein transiently overexpressed in Srf(−/−) ES cells (protein, UniProt Q15942 2-572, looked up)
# Zyxin: AAPRPSPAISVSVSAPAFYAPQKKFGPVVAPKPKVNPFRPGDSEPPPAPGAQRAQMGRVGEIPPPPPEDFPLPPPPLAGDGDDAEGALGGAFPPPPPPIEESFPPAPLEEEIFPSPPPPPEEEGGPEAPIPPPPQPREKVSSIDLEIDSLSSLLDDMTKNDPFKARVSSGYVPPPVATPFSSKSSTKPAAGGTAPLPPWKSPSSSQPLPQVPAPAQSQTQFHVQPQPQPKPQVQLHVQSQTQPVSLANTQPRGPPASSPAPAPKFSPVTPKFTPVASKFSPGAPGGSGSQPNQKLGHPEALSAGTGSPQPPSFTYAQQREKPRVQEKQHPVPPPAQNQNQVRSPGAPGPLTLKEVEELEQLTQQLMQDMEHPQRQNVAVNELCGRCHQPLARAQPAVRALGQLFHIACFTCHQCAQQLQGQQFYSLEGAPYCEGCYTDTLEKCNTCGEPITDRMLRATGKAYHPHCFTCVVCARPLEGTSFIVDQANRPHCVPDYHKQYAPRCSVCSEPIMPEPGRDETVRVVALDKNFHMKCYKCEDCGKPLSIEADDNGCFPLDGHVLCRKCHTARAQT
# Tests used:
# [1] = system: monolayer ES cells; assay: In vitro differentiation of monolayer ES cells, RT-PCR of differentiation marker genes; format: cell-based, mouse; settings: SRF-containing (Srf(−/+)) ES cells in monolayer, LIF withdrawal plus agent
# Experimental: In vitro differentiation conditions. For differentiation experiments, cells were seeded in monolayers on gelatin-coated dishes and kept overnight in complete medium. The first day after seeding was defined to be day 0 of differentiation. The medium was then exchanged by complete medium lacking LIF or complete medium without LIF, but containing either 0.8% dimethylsulfoxide (DMSO) or 5×10^−7 M all-trans RA, respectively. Medium was exchanged daily and cells were harvested at the indicated time points for RT-PCR analysis. The vitality was determined by trypan blue staining. The vitality of detached cells was less than 5%.
# Total RNA preparation (RNeasy kit, QUIAGEN) and first strand cDNA synthesis (Superscript II, Gibco) were done according to the manufacturers protocols. 1 μg of total RNA treated with DNAse I was used for reverse transcription. […] For quantitative analysis, SYBR Green PCR technology was used (Perkin Elmer). Real time detection of the PCR product was monitored by measuring the increase in fluorescence caused by the binding of SYBR Green to double-stranded DNA with ABI PRISM 7700 Sequence Detector. In order to do relative quantification, a threshold cycle (Ct), the cycle at which a statistically significant increase in fluorescence occurs, was derived from the resulting PCR profiles of each sample. […] The relative quantitation value is expressed as […]. […]
# [2] = system: Srf(−/−) ES cells; assay: F-actin / stress fiber immunofluorescence and cell morphology after transient transfection of ES cells; format: cell-based, mouse
# Experimental: Alternatively, the cells were grown on gelatine-coated coverslips in complete growth medium for 48 hours, or as EBs in droplets for up to 8 days. The samples were then fixed in 4% formaldehyde and permeabilized in 0.2% Triton-X 100. Non-specific binding was blocked by incubating the cells for one hour in 1% BSA in PBS at 37° C. before staining with primary antibodies for 1 hour at 37° C. Incubation with fluorescence conjugated secondary antibodies (Molecular Probes, 1:200 in 0.2% BSA) was performed for 30 min at 37° C. To visualize filamentous actin, 1 unit Oregon-green phalloidin was included into the mixture. Coverstips were washed four times with PBS, once in water, air-dried and mounted in Moviol. Image acquisition was done with LSM 510 (Zeiss).
# (C) SRF-VP16 expression leads to increased stress fiber formation. […] ES cells were transiently transfected with SRF-VP16 (upper panel) and the SRF-M-VP16 control construct (lower panel) and processed for immunofluorescence analysis three days later. […]
# SRF-VP16 fusion proteins were previously used to drive SRF-dependent transcription independent of upstream signalling cascades (Hines et al., 1999; Johansen and Prywes, 1994;Treisman et al., 1992). […] Undifferentiated ES cells were transiently transfected with SRF-VP16 and SRF M-VP16 expression vectors, and RNA expression levels were measured by quantitative RT-PCR (FIG. 17B). […]
molecule,measurement,setting,value
"C[S+](C)[O-] [DMSO, dimethylsulfoxide]",timing of mesodermal marker gene induction versus LIF withdrawal alone,[1],earlier induction
B1,effects on gene expression and cytoskeletal rearrangements,[2]; reintroduction by transient transfection,only minor effects
B2,rescue of defective actin cytoskeleton,[2]; transient overexpression in Srf(−/−) ES cells,did not rescue the defective actin cytoskeleton
